Measured values as given in patent US12497460B2, “Anti-MSR1 antibodies and methods of use thereof” (REGENERON PHARMACEUTICALS, INC., priority 2018, dated 2025).

T1: Ac-LDL binding to His9-hMSR1 (Homo sapiens, UniProt P21757)
T1 construct: human MSR1 extracellular domain expressed with a N-terminal nonahistidine tag; His9 (nonahistidine) (N); purchased R&D Systems 2708-MS
T1 sequence (P21757 77-451 limits assumed): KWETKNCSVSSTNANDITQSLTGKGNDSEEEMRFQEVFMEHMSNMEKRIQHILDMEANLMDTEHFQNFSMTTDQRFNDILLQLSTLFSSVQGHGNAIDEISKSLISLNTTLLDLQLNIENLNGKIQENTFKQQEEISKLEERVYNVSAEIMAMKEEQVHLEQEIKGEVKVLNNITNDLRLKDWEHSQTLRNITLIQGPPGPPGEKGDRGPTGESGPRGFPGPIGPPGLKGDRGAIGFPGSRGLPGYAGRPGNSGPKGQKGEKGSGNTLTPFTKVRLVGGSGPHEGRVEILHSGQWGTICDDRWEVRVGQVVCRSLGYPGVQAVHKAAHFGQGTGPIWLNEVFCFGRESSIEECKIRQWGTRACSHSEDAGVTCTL

T2: HEK293.Myc.hMSR1 cells (human MSR1) (Homo sapiens, UniProt P21757)
T2 construct: expressed in transfected cells; host or cells: HEK293 (lentiviral transduction, hygromycin selection)
T2 sequence (P21757 1-451): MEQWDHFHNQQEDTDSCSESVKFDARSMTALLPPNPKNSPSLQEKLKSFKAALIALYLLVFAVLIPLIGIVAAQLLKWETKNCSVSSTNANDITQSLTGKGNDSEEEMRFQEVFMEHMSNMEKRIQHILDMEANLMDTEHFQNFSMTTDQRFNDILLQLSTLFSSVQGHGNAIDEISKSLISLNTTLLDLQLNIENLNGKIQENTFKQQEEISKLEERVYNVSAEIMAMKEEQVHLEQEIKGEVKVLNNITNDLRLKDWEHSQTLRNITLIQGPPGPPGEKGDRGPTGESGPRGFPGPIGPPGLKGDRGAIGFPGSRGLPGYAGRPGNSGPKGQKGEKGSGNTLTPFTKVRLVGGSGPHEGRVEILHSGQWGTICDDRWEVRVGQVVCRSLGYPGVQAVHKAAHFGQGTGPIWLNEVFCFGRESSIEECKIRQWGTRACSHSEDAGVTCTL

T3: His9-mMSR1 (mouse MSR1 extracellular domain) (Mus musculus, UniProt P30204)
T3 construct: mouse MSR1 extracellular domain expressed with a N-terminal nonahistidine tag; His9 (nonahistidine) (N); purchased R&D Systems 1797-MS
T3 sequence (P30204 79-458 limits assumed): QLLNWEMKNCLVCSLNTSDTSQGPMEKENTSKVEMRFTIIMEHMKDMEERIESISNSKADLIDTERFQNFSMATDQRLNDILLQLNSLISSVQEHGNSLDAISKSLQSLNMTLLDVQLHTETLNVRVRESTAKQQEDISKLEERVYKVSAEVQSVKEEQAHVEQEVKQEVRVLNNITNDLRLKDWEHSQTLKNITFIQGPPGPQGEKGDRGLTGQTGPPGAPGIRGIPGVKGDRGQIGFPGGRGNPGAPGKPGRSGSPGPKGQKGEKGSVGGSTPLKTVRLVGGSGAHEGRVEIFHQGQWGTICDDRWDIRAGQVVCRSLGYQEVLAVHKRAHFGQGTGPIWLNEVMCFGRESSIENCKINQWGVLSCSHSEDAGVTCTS


Columns and labels:
[1] = target: T1, Ac-LDL binding to His9-hMSR1; assay: Competition sandwich ELISA, blocking of Ac-LDL binding; settings: 50 pM Ac-LDL
Method: The ability of anti-MSR1 antibodies disclosed herein to block the binding of various ligands to human MSR1 was measured using three competition sandwich ELISA assays. The ligands used in the assays were: (1) acetylated LDL (Ac-LDL), (2) oxidized LDL (Ox-LDL), and (3) advanced glycation end-products of bovine serum albumin (AGE-BSA).
Anti-MSR1 antibodies or isotype control antibodies were serially diluted as appropriate for each tested ligand and added in duplicate for each serial dilution set to microtiter plates coated with His9-hMSR1. Buffer alone was also added to wells on each coat. […] This assay was conducted in four different assay runs.
Data analysis was performed using a sigmoidal dose-response model within Prism™ software (GraphPad). Percent blockade at maximum concentration of the antibody tested in each assay was calculated as an indicator of the ability of the antibodies to block the binding of Ac-LDL, Ox-LDL or biot-AGE-BSA to His9-hMSR1 on the plate relative to the baseline of the assay. In the calculation, binding signal of the same concentrations of Ac-LDL, Ox-LDL, or biot-AGE-BSA used for the assays in the absence of antibody was referenced as 100% binding or 0% blocking, while the baseline of the assay, defined as binding signal of the sample of buffer without MSR1 ligands or antibody, was referenced as 0% binding or 100% blocking. The maximum percent blockade at the highest concentration of antibody tested in each assay are reported for all antibodies.

[2] = target: T2, HEK293.Myc.hMSR1 cells (human MSR1); assay: Electrochemiluminescence antibody binding assay on MSR1-expressing cells; type: cell-based
[3] = target: T3, His9-mMSR1 (mouse MSR1 extracellular domain); assay: OCTET bio-layer interferometry binding kinetics of anti-MSR1 mAbs; settings: 25° C., antibody-capture format, analyte His9-mMSR1; for kd: * = no dissociation observed, kd manually fixed at 5.00E−05; for t½: dissociative half-life
Method: Binding affinities and kinetic constants of human anti-MSR1 antibodies for different MSR1 reagents were determined using a real time, label-free bio-layer interferometry assay on an OCTET® HTX biosensor platform (Pall FortéBio Corp., Menlo Park, CA). The experiment was performed at 25° C. in 10 mM HEPES, 150 mM NaCl, 3 mM EDTA, 0.05% v/v Surfactant Tween-20, and 1 mg/mL BSA, pH7.4 (HBS-EBT) buffer with the plate shaking at the speed of 1000 rpm. Binding studies were performed on human MSR1 extracellular domain expressed with a N-terminal nonahistidine tag (His9-hMSR1; R&D Systems, Cat #2708-MS), monkey MSR1 extracellular domain expressed with a N-terminal myc-myc-hexahistidine tag (HMM-mfMSR1; SEQ ID NO: 418), and mouse MSR1 extracellular domain expressed with a N-terminal nonahistidine tag (His9-mMSR1; R&D Systems, Cat #1797-MS). The anti-MSR1 monoclonal antibodies were captured by dipping either anti-human Fc (AHC) or anti-mouse Fc (AMC) Octet biosensors in wells containing 5 μg/mL or 10 μg/mL of anti-MSR1 monoclonal antibody for 45-90 seconds. The AHC captured anti-MSR1 monoclonal antibodies were then dipped in wells containing 50 nM of His9-mMSR1, while the AMC captured anti-MSR1 monoclonal antibodies were dipped in wells containing different concentrations of His9-hMSR1 or HMM-mfMSR1 (100 nM, 25 nM) or 100 nM His9-mMSR1. The binding of different MSR1 reagents to the captured anti-MSR1 monoclonal antibody was measured for 4 minutes and the dissociation of monoclonal antibody bound MSR1 reagent was monitored for 8-10 minutes in HBS-EBT buffer.
The association rate (ka) and dissociation rate (kd) were determined by fitting the real-time binding sensorgrams to a 1:1 binding model with mass transport limitation using Scrubber 2.0c curve-fitting software. Binding dissociation equilibrium constant (KD) and dissociative half-life (t½) were calculated from the kinetic rates as: […]
Binding kinetics parameters for His9-hMSR1, HMM-mfMSR1 or His9-mMSR1 binding to different anti-MSR1 monoclonal antibodies of the invention at 25° C. are shown in Tables 8 and 9.

Molecule | Anti-MSR1 antibody (100 nM) blocking of Ac-LDL binding to His9-hMSR1 % Blocking [1] [%] | Ratio of 11 nM Antibody Binding Signal (RLU) to isotype control, HEK293.Myc.hMSR1 [2] | Kd [3] [nM] | ka [3] [M⁻¹ s⁻¹] | kd [3] [s⁻¹] | t½ [3] [min]
H1H21227N-N297Q: "modified versions of 21227N (H1H21227N-N297Q and H1H21227N-N297D)"; anti-MSR1 antibody "with a N297Q single point mutation" (antibody, V domains shown) VH: QVQLVQSGAEVKKPGASVKVSCKVSGYTLTELSIHWVRQVPGKGLEWMGGFDPEEGETIFAQEFRDRVTLTEDTSPDTAYMELSSLKSEDAAVYYCTTPRYCNNGICYDYWGQGTLVTVSS VL: DIQMTQSPSSLSASVGDRVTITCRASQSISNYLNWYQQKPGKAPKLLIYTASSLQSGVPSRFSGSGSGTDFTLTISSLQTEDFATYYCQQSYSNFPITFGQGTRLEIKR | 105 | 37 | 1.89 | 374000 | 0.000708 | 16
H1H21227N: "anti-MSR1 antibodies ... (21227N, 21231N, 21234N) were produced with the original human Fcγ portion"; "H1H" = human IgG1 Fc (antibody, V domains shown, human IgG1 Fc, "anti-MSR1 antibodies ; (21227N, 21231N, 21234N) were produced with the original human Fcγ portion"; "H1H" = human IgG1 Fc) VH: QVQLVQSGAEVKKPGASVKVSCKVSGYTLTELSIHWVRQVPGKGLEWMGGFDPEEGETIFAQEFRDRVTLTEDTSPDTAYMELSSLKSEDAAVYYCTTPRYCNNGICYDYWGQGTLVTVSS VL: DIQMTQSPSSLSASVGDRVTITCRASQSISNYLNWYQQKPGKAPKLLIYTASSLQSGVPSRFSGSGSGTDFTLTISSLQTEDFATYYCQQSYSNFPITFGQGTRLEIKR | 105 | 37 | 1.97 | 415000 | 0.000816 | 14
H1H21227N-N297D: "The 21227N antibody was also produced as a third version with a N297D mutation" (antibody, V domains shown) VH: QVQLVQSGAEVKKPGASVKVSCKVSGYTLTELSIHWVRQVPGKGLEWMGGFDPEEGETIFAQEFRDRVTLTEDTSPDTAYMELSSLKSEDAAVYYCTTPRYCNNGICYDYWGQGTLVTVSS VL: DIQMTQSPSSLSASVGDRVTITCRASQSISNYLNWYQQKPGKAPKLLIYTASSLQSGVPSRFSGSGSGTDFTLTISSLQTEDFATYYCQQSYSNFPITFGQGTRLEIKR | 101 | 34 | 1.71 | 461000 | 0.000786 | 15

Further lines, results first:

Anti-MSR1 antibody (100 nM) blocking of Ac-LDL binding to His9-hMSR1 % Blocking [1] [%] | Ratio of 11 nM Antibody Binding Signal (RLU) to isotype control, HEK293.Myc.hMSR1 [2] | Kd [3] [nM] | ka [3] [M⁻¹ s⁻¹] | kd [3] [s⁻¹] | t½ [3] [min] | Molecule
−60 | – | – | – | – | – | H1H21231N-N297Q: modified version of "21231N (H1H21231N-N297Q) anti-MSR1 antibodies" with "a N297Q single point mutation" (antibody, V domains shown) VH: EVQLVESGGGLVQPGGSLRLSCAASGFTFSDHYMDWVRQAPGKGLEWVGRTRNKANSHTTEYTASVTGRFTISRDDSRNSLYLQMNSLKTEDTAVYYCVRAGIIGTLFDYWGQGTLVTVSS VL: DIQMTQFPSSLSASVGDRVTITCRASQSISSFLNWFQQKPGKAPKFLIYAASSLQSGVPSRFSGSGSGTDFTLTISSLQPEDFATYYCQQSYSSPPITFGQGTRLEIKR
−62 | 61 | – | – | – | – | H1H21231N: "anti-MSR1 antibodies ... (21227N, 21231N, 21234N) were produced with the original human Fcγ portion"; "H1H" = human IgG1 Fc (antibody, V domains shown, human IgG1 Fc, "anti-MSR1 antibodies ; (21227N, 21231N, 21234N) were produced with the original human Fcγ portion"; "H1H" = human IgG1 Fc) VH: EVQLVESGGGLVQPGGSLRLSCAASGFTFSDHYMDWVRQAPGKGLEWVGRTRNKANSHTTEYTASVTGRFTISRDDSRNSLYLQMNSLKTEDTAVYYCVRAGIIGTLFDYWGQGTLVTVSS VL: DIQMTQFPSSLSASVGDRVTITCRASQSISSFLNWFQQKPGKAPKFLIYAASSLQSGVPSRFSGSGSGTDFTLTISSLQPEDFATYYCQQSYSSPPITFGQGTRLEIKR
